Results published in PMC2898018.

Target: His-tagged WRN (E84A) (human) (UniProt Q14191)
Chain of UniProt Q14191 (Q14191 whole entry E84A): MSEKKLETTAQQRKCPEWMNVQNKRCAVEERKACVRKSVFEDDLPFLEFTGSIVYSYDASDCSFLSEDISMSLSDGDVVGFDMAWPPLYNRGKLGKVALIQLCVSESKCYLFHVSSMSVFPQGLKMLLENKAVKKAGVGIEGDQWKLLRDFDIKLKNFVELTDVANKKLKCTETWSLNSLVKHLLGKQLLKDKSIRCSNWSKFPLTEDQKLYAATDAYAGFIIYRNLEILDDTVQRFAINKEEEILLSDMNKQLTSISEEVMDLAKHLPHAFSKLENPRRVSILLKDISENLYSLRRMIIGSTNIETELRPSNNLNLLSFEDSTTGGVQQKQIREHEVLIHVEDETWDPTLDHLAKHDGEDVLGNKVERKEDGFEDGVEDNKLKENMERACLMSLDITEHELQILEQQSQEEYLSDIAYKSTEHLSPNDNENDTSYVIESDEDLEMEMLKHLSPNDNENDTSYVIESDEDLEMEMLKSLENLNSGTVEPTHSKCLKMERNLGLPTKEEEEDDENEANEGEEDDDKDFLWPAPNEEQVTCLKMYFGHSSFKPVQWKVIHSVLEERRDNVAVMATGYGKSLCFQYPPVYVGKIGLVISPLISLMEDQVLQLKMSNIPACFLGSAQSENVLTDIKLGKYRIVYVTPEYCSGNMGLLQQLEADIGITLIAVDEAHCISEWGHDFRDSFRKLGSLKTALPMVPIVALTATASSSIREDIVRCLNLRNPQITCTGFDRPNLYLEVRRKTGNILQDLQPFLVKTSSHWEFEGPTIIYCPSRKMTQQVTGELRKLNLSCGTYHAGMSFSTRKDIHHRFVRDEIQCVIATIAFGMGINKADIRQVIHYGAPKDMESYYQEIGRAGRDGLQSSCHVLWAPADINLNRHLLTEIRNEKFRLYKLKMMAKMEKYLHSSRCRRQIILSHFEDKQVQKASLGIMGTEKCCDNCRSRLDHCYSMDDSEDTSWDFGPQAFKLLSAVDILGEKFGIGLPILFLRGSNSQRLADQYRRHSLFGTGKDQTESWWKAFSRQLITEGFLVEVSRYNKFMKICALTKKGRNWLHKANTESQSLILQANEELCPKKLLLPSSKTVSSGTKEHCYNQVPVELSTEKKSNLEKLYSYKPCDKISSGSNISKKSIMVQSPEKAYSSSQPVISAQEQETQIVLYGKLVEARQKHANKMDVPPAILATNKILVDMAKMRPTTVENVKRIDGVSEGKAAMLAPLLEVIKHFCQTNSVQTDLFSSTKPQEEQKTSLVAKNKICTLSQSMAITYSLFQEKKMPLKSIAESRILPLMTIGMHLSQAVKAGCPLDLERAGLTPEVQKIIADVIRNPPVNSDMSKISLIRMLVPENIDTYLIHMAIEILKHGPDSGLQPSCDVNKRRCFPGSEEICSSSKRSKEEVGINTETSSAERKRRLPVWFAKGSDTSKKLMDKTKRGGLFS

- unwinding of the telomeric D-loop substrate by WRN (E84A) (3.3 nM) preincubated with DNA-PKcs (16.7 nM), native gel; 3.3% unwound in the absence of DNA-PKcs: 66%
Substance: DNA-PKcs, the catalytic subunit of DNA-PK (from UniProt P78527 1-4128) (enzyme)
